Source: US20110189093A1, “PROSTATE SPECIFIC MEMBRANE ANTIGEN ANTIBODIES AND ANTIGEN BINDING FRAGMENTS” (PROSCAN RX PHARMA, priority 2008, published 2011)

Assays:
22 different tumor types = assay: Immunohistochemistry on tissue microarrays of tumor types
Protocol: (§1) Tissue and tumor specificity of mAbs: to compare the tissue and tumor specificity of monoclonal antibodies of the present invention, tissue microarrays of 30 different normal tissues (Biochain) and 22 different tumor types (Dako) including prostate cancer was used in order to characterize their recognition specificity. The immunohistochemistry was performed on antigen retrieved, formalin fixed, paraffin embedded material. Anti-PSMA mAbs J591 (ATCC HB-12126) and 7E11 (ATCC HB-10494) were used as references. Formalin fixed paraffin embedded […] sections were subjected to antigen retrieval in basic antigen retrieval solution (BD Pharmingen pH 9.5) in a microwavable pressure cooker for 10 min, cooled and equilibrated to 0.01M phosphate buffered saline (PBS) pH 7.4. Staining was carried out at room temperature in a humidified chamber. Endogenous peroxidases were inactivated with a 1% solution of H2O2 for 20 min, blocked with 5% normal goat serum (NGS) for 30 min and incubated with primary monoclonal antibodies (mAbs) diluted in PBS; 2% NGS overnight. Antibody binding to tissue sections was detected by the sequential addition of the following reagents followed by washing in PBS: goat anti-mouse IgG (H+L) (ICN) secondary antibody diluted 1:100 in PBS; 2% NGS for 1 hr, a complex of a bi-specific mAb mouse anti-peroxidase and horse radish peroxidase for 1 hr, and 3,3-diaminobenzidene tetrahydrochloride (DAB) at 0.6 mg/ml in PBS; 2% NGS; 0.01% H2O2 as chromogen. The primary antibodies were purified mAbs used at concentrations optimized in dilution experiments. […] Mouse IgG mAb was used at a concentration of 0.2 μg/ml and served as a negative control for the primary antibodies. Tissue samples included organ confined and metastatic prostate cancer, HGPIN and normal prostate tissues drawn from radical prostatectomies, transurethral resections and autopsy material.

[1] = system: 30 different normal tissues; assay: Immunohistochemistry on tissue microarrays of normal tissues
Protocol: as §1

B1: PSf42.3: anti-PSMA monoclonal antibody; light chain variable SEQ ID NO:49, heavy chain variable SEQ ID NO:50 (antibody, V domains shown)
VH: EVQLQQSGAELAKPGASVKLSCTGSGFNIKDTYMHWVKQRPEQGLEWIGGIDPETGNTKFDPRFQDKATITSDTSSNTVLLQLSSLTSEDTAVYYCANLGRPFAHWGQGTTVTVS
VL: HSADPVSISCKSSQSLLHRDGKTYLNWVFQRPGQSPQRLIYLVSLVDSGVPDRFTGSGSGTDFTLKINRVEAEDLGVYYCWQGTHFPRTFGGGTKLEIKRA
22 different tumor types; Astrocytoma
  No. of positive cases/total no. of cases studied: 0/2
22 different tumor types; Breast carcinoma
  No. of positive cases/total no. of cases studied: 0/2
22 different tumor types; Carcinoid
  No. of positive cases/total no. of cases studied: 0/3
22 different tumor types; Colonic adenocarcinoma
  No. of positive cases/total no. of cases studied: 0/2
22 different tumor types; Epithelioid sarcoma
  No. of positive cases/total no. of cases studied: 0/1
22 different tumor types; Ewing's sarcoma
  No. of positive cases/total no. of cases studied: 0/1
22 different tumor types; Gastric carcinoma
  No. of positive cases/total no. of cases studied: 0/2
22 different tumor types; Hepatocellular carcinoma
  No. of positive cases/total no. of cases studied: 0/2
22 different tumor types; Hodgkin's lymphoma
  No. of positive cases/total no. of cases studied: 2/13
22 different tumor types; Leiomyoma
  No. of positive cases/total no. of cases studied: 0/2
22 different tumor types; Lung adeno carcinoma
  No. of positive cases/total no. of cases studied: 0/2
22 different tumor types; Lymphoma
  No. of positive cases/total no. of cases studied: 0/3
22 different tumor types; Malignant fibrous histiocytoma
  No. of positive cases/total no. of cases studied: 0/1
22 different tumor types; Melanoma
  No. of positive cases/total no. of cases studied: 2/4
22 different tumor types; Mesothelioma
  No. of positive cases/total no. of cases studied: 0/2
22 different tumor types; Ovarian carcinoma
  No. of positive cases/total no. of cases studied: 0/2
22 different tumor types; Pancreatic carcinoma
  No. of positive cases/total no. of cases studied: 0/2
22 different tumor types; Prostatic carcinoma
  No. of positive cases/total no. of cases studied: 1/1
22 different tumor types; Renal cell carcinoma
  No. of positive cases/total no. of cases studied: 0/2
22 different tumor types; Rhabdosarcoma
  No. of positive cases/total no. of cases studied: 2/2
22 different tumor types; Thyroid carcinoma
  No. of positive cases/total no. of cases studied: 0/2
22 different tumor types; Undifferentiated carcinoma
  No. of positive cases/total no. of cases studied: 0/4
[1]; Adipose
  No. of positive cases/total no. of cases studied: 0/2
[1]; Bladder
  No. of positive cases/total no. of cases studied: 0/2
[1]; Brain
  No. of positive cases/total no. of cases studied: 0/2
[1]; Breast
  No. of positive cases/total no. of cases studied: 0/2
[1]; Cerebullum
  No. of positive cases/total no. of cases studied: 0/2
[1]; Cervix
  No. of positive cases/total no. of cases studied: 0/2
[1]; Colon
  No. of positive cases/total no. of cases studied: 0/2
[1]; Diaphragm
  No. of positive cases/total no. of cases studied: 2/2
[1]; Duodenum
  No. of positive cases/total no. of cases studied: 2/2
[1]; Esophagus
  No. of positive cases/total no. of cases studied: 2/2
[1]; Gallbladder
  No. of positive cases/total no. of cases studied: 0/2
[1]; Heart
  No. of positive cases/total no. of cases studied: 0/2
[1]; Ileum
  No. of positive cases/total no. of cases studied: 2/2
[1]; Jejenum
  No. of positive cases/total no. of cases studied: 2/2
[1]; Kidney
  No. of positive cases/total no. of cases studied: 2/2
[1]; Liver
  No. of positive cases/total no. of cases studied: 0/2
[1]; Lung
  No. of positive cases/total no. of cases studied: 0/2
[1]; Ovary
  No. of positive cases/total no. of cases studied: 0/2
[1]; Pancreas
  No. of positive cases/total no. of cases studied: 0/2
[1]; Placenta
  No. of positive cases/total no. of cases studied: 1/4
[1]; Rectum
  No. of positive cases/total no. of cases studied: 0/2
[1]; Skeletal muscle
  No. of positive cases/total no. of cases studied: 2/2
[1]; Skin
  No. of positive cases/total no. of cases studied: 0/2
[1]; Spleen
  No. of positive cases/total no. of cases studied: 0/2
[1]; Stomach
  No. of positive cases/total no. of cases studied: 0/2
[1]; Testis
  No. of positive cases/total no. of cases studied: 0/2
[1]; Thymus
  No. of positive cases/total no. of cases studied: 0/2
[1]; Thyroid
  No. of positive cases/total no. of cases studied: 0/2
[1]; Tonsil
  No. of positive cases/total no. of cases studied: 0/2
[1]; Uterus
  No. of positive cases/total no. of cases studied: 0/2

B2: PSf42.4: anti-PSMA monoclonal antibody; light chain variable SEQ ID NO:51, heavy chain variable SEQ ID NO:52 (antibody, V domains shown)
VH: EVKLQQSGAELVKPGASVKLSCTASGFSIRDTYMHWVRQRPEQGLEWITGIDPENGNSKYAPRFQDKATIIADTSSNTVHLQLDTLTSEDTAVYYCTRELAYWGQGTTVTVS
VL: DILMTQSPLTLSVIIGQPASFSCKSSHSLLHRDGRTYLNWLLQRPGQSPQRLIYLVSKLDSGVPDRFTGSGSGTDFTLKISRVEAEDLGVYYCWQGTHFPRTFGGGTKLEIKRA
22 different tumor types; Astrocytoma
  No. of positive cases/total no. of cases studied: 0/2
22 different tumor types; Breast carcinoma
  No. of positive cases/total no. of cases studied: 0/2
22 different tumor types; Carcinoid
  No. of positive cases/total no. of cases studied: 0/3
22 different tumor types; Colonic adenocarcinoma
  No. of positive cases/total no. of cases studied: 0/2
22 different tumor types; Epithelioid sarcoma
  No. of positive cases/total no. of cases studied: 0/1
22 different tumor types; Ewing's sarcoma
  No. of positive cases/total no. of cases studied: 0/1
22 different tumor types; Gastric carcinoma
  No. of positive cases/total no. of cases studied: 0/2
22 different tumor types; Hepatocellular carcinoma
  No. of positive cases/total no. of cases studied: 0/2
22 different tumor types; Hodgkin's lymphoma
  No. of positive cases/total no. of cases studied: 5/13
22 different tumor types; Leiomyoma
  No. of positive cases/total no. of cases studied: 0/2
22 different tumor types; Lung adeno carcinoma
  No. of positive cases/total no. of cases studied: 0/2
22 different tumor types; Lymphoma
  No. of positive cases/total no. of cases studied: 0/3
22 different tumor types; Malignant fibrous histiocytoma
  No. of positive cases/total no. of cases studied: 0/1
22 different tumor types; Melanoma
  No. of positive cases/total no. of cases studied: 2/4
22 different tumor types; Mesothelioma
  No. of positive cases/total no. of cases studied: 0/2
22 different tumor types; Ovarian carcinoma
  No. of positive cases/total no. of cases studied: 0/2
22 different tumor types; Pancreatic carcinoma
  No. of positive cases/total no. of cases studied: 0/2
22 different tumor types; Prostatic carcinoma
  No. of positive cases/total no. of cases studied: 1/1
22 different tumor types; Renal cell carcinoma
  No. of positive cases/total no. of cases studied: 0/2
22 different tumor types; Rhabdosarcoma
  No. of positive cases/total no. of cases studied: 2/2
22 different tumor types; Thyroid carcinoma
  No. of positive cases/total no. of cases studied: 0/2
22 different tumor types; Undifferentiated carcinoma
  No. of positive cases/total no. of cases studied: 0/4
[1]; Adipose
  No. of positive cases/total no. of cases studied: 0/2
[1]; Bladder
  No. of positive cases/total no. of cases studied: 0/2
[1]; Brain
  No. of positive cases/total no. of cases studied: 0/2
[1]; Breast
  No. of positive cases/total no. of cases studied: 0/2
[1]; Cerebullum
  No. of positive cases/total no. of cases studied: 0/2
[1]; Cervix
  No. of positive cases/total no. of cases studied: 0/2
[1]; Colon
  No. of positive cases/total no. of cases studied: 0/2
[1]; Diaphragm
  No. of positive cases/total no. of cases studied: 2/2
[1]; Duodenum
  No. of positive cases/total no. of cases studied: 0/2
[1]; Esophagus
  No. of positive cases/total no. of cases studied: 0/2
[1]; Gallbladder
  No. of positive cases/total no. of cases studied: 0/2
[1]; Heart
  No. of positive cases/total no. of cases studied: 0/2
[1]; Ileum
  No. of positive cases/total no. of cases studied: 2/2
[1]; Jejenum
  No. of positive cases/total no. of cases studied: 2/2
[1]; Kidney
  No. of positive cases/total no. of cases studied: 1/2
[1]; Liver
  No. of positive cases/total no. of cases studied: 0/2
[1]; Lung
  No. of positive cases/total no. of cases studied: 0/2
[1]; Ovary
  No. of positive cases/total no. of cases studied: 0/2
[1]; Pancreas
  No. of positive cases/total no. of cases studied: 0/2
[1]; Placenta
  No. of positive cases/total no. of cases studied: 1/4
[1]; Rectum
  No. of positive cases/total no. of cases studied: 0/2
[1]; Skeletal muscle
  No. of positive cases/total no. of cases studied: 2/2
[1]; Skin
  No. of positive cases/total no. of cases studied: 0/2
[1]; Spleen
  No. of positive cases/total no. of cases studied: 0/2
[1]; Stomach
  No. of positive cases/total no. of cases studied: 0/2
[1]; Testis
  No. of positive cases/total no. of cases studied: 0/2
[1]; Thymus
  No. of positive cases/total no. of cases studied: 0/2
[1]; Thyroid
  No. of positive cases/total no. of cases studied: 0/2
[1]; Tonsil
  No. of positive cases/total no. of cases studied: 0/2
[1]; Uterus
  No. of positive cases/total no. of cases studied: 0/2
